Experiment: yeast display, Sf9 membrane polyspecificity reagent, FACS + sequencing; frameworks hold sequencing errors
In short: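 A synthetic nanobody library was expressed on Saccharomyces cerevisiae BJ5465 by galactose induction for 36–48 hours. The library was stained for 1 hour at 4 °C with 10% biotinylated, detergent-solubilized Sf9 membrane reagent and enriched with streptavidin microbeads before FACS. Low and high (top ~1%) gates were set on anti-HA fluorescence for expression and streptavidin fluorescence for reagent binding, and each polyreactivity label reflects the gate of origin.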

Sequence	polyreactivity (PSR sort gate)
QGQLVESAGGLVQAGGSLRLSCGASGRSFYSYTMGWYRQAPVKERELVAAITRADRTHYADSVKGRFTISRDYATKHVDCERNSQKPEDTAVYYAATRQVYSVRYYYRGQGTQVTVSS	high polyreactivity
QVQLVESGGGLVQAGGSLRLSCAASGFTFARYAMGWYRQAPGKERELVAAIDRSGGSTYYADSVKGRFTISRDNAKNTVFLQMNSLKPEDTAVYYCNAVSSFTSPRYDYWGQGTQVTVSS	high polyreactivity
QVQLEDSGGGLLQAGGSLRLSCAASGRILYLYTMGWYRQAPGKERELVAAISRGGSTYYADSVKGRFTISRDNAKNTVYLQMNSLNPEDTAVYYCSADARGYQFNYWGQGTQVTVSS	high polyreactivity
QVQLVESGGGLVQAGGILRLSCAASGRTFERNAMGWYRQSPGKEREFVAAITEIGGSTYYADSVKGRFTISRDNAKNTVYLQMNSLKPEDTAVYYCAKDGTYSPYDYWGQGTQVTVSS	low polyreactivity
QVQLVESGGGLVQAGGSLRLSCAASGRIFTYNTMGWYRQATGKEREFVASITYSGSSTYYADSVKGRFTISRDNAKNTVYLQMNSLKPEDTAVYYCATRYGYSDGDYWGQRTQVTVSS	low polyreactivity
QVQLVESGGGLVQAGGSLRLSCAASGFIFLHYAMGWYRKAPGKERELVAGIDSSVDSTFYADSVKGRFTISRDNAKNTVYLQMNSLKPEDTAVYYCAKDPDLDYYLYYYWGQGTQVTVSS	low polyreactivity
QVQLVESGGGLVQAGGSLRLSCAASGSTFWPYAMGWYRQATGKERELVAAISNGGGTKYADSVKGRFTISRDNAKNTVYLQMNSLKPEDTAVYYCAKTLWTGRAWYDYWGQGTQVTVSS	high polyreactivity
QVQLVESGGGLVQAGGSLRLSCAASGFTFYYYAMGWYRQAPGKERELVAAINWDGRTYYADSVKGRFTISRDNAKNTVYLQMNTLKPEDTAVYYCAAGYYLLTYRYDYWGQGTQVTVSS	low polyreactivity
QVQLVESGGGLVQAGGRLRLSCAASGSTFIGNAMGWYRQAPGKERELVAAISRTGGSTYADSVKGRFTISRDNAKNTVYLQMNSLKPEDTAVYYCAAKYYYLYYYWGQGTQVTVSS	high polyreactivity
QVQLVESGGGLVQAGGSLRLSCAASGSTFNYYAMGWYRQAPGKERELVAAISSSGGTTYYADSVKGRFTISRDNAKNTVYLQMKSLKPEDTAVYYCATDTPPYWGGSHFDYWGQGTQVTVSS	low polyreactivity
QVQLVESGGGLVQAGGSLRLSCAASGSISYRYDMGWYRQAPGKERELVATIRSGGSTNYADSVKGRFTISRDNAKNTVYLQMNSMIPEDTAVYYCAARLYARKILHFSADSDYWGQGTQVTVSS	low polyreactivity
QVQLVESGGGLVQAGGSLRLSCAASGSTYYSNAMGWYRPAPGKERELVAGIDTSDGSTNYADSVKGRFTISRDNAKNTVYLQMNSLKPEDTAVYYCAADYTQPGFVSYDYWGQGTQVTVSS	low polyreactivity
QVQLVESGAGLLQAGGSLRLSCAASGITLRRNTMGWYRQAPGKERELVAAITRSGGSTYYADSVKGRVTISRDNAKNTVYLQINSLKPEVTAVYYCAEGPSYGGPSHVYWRQGTQVTVSS	high polyreactivity
QVQLVESGGGLVQAGGSLRLICAASGRIYWTYAMGWYRQAPGKERDLVAAISSGGSTNYADSVKGRFTISRDNAKNTVYLQMNSLKPEDTAVYYCAADRWYREYDYWGQGTQVTVSS	low polyreactivity
QVQLVESGGGLVQAGGSLRLSCAASGSTFNSYAMGWNRQAPGKERELVDRILWSGSTYYADSVKGRFTISRDNAKNTVYLQMNSLKPEDTAVYYFAAKRGYHIGDYWGQCTQVTVSS	high polyreactivity
QDQLVESGGCLVQAGGSLRLSCAASGSISDSKAMGWYRQAPGKERELVAAISNGGSTNYADSVKGRFTISRDNAKNTVYLQMNSLKPEDTAVYYCARDYDIQNHEYDYWGQGTQVTVSS	low polyreactivity
QVQLVESGGGLVQAGGSLRLSCAASGNIFYRYPMGWYRQAPGKEREMVAAISRSGGSTYYADSVKGRFTISRDNAKNSVYLQRNSLKPEDTAVYYCAAEYQGFWWYGDYDYWGQGTQVTVSS	high polyreactivity
QVQLVESGGGLVQAGGSLRLSCAASGRTFLRYAMGWYRQAPGKERELVAAISVSGGNTYYADSVKGRFTISRDNAKNTVYLQMKSLKPEDTAVYYCNKARLAAVFSYPYGYWGQGTQVTVSS	low polyreactivity
QVQLVESGGGLVQAGGSLRLSCAASGRTFVRYAMGWYRQAPGKERELVAAITRRGGSTYYADSVKGRFTISRDNAKNTVYLQMNSLKPEDTAVYYCNKAVGVTGFDYWGQGTQVTVSS	high polyreactivity
QVQLVESGGGLVQAGGSLRLSCAASGRTFNFYTMGWYRQAPGKEREFVAGITSTGGSTDYADSVKGRFTISRDNAKNSVYLQMNSLKPEDTAVYYCNKVTSFVGEYDYWGQGTQVTVSS	high polyreactivity
QVQLVESGGGLVQAGGSLRLSCAASGRTFQYYAMGWYRQAPGKERELVAAISSRGGSTYYADSVKGRFTISRDNAKNTVYLQMNSLKPEDTAVYYCAAYVLPRQRVRSDYWGQGTQVTVSS	high polyreactivity
QVQLVESGGGLVQAGGSLSLSCAASGSTFAFNAMGWYRQAPGKERELVAAIYSDGSTDYADSVKGRFTISRDNAKNTVYLQMNSLKPEDTAVYYCAADWGWRYVLPVGWFRYGYWGQGTQVTVSS	low polyreactivity

Sequence	polyreactivity (PSR sort gate)
QVQLVESGGGLHQAGGSLRLSCAASGSISGYNPMGWYRQAPGKESELVAVNTTDGSTNYADSVKGRFTISRDNAKNTVYLQMNSLKPEDTAVYYCNTHDGWRLLWEYDYWGQGTQVTVSS	low polyreactivity
QVQLVESGGGLVHAGGSLRLSCAASGFTFPGYAMGWYRQAPGKERELVAAISRGGAGTYYADSVKGRFTISRDNAKNTVYLQMHSLKPEDTAFYDCAAATDNPSLFQDMYYWGQGTQLTVSS	high polyreactivity
QVQLVESGGGLVQAGGRLRLSCAASGRTFRRYTMGWYRQAPGKERELVAAISRNGGSTYYADSVKGRFTISRDNAKNTVYLQMNSLKPEDTAVYYCAALRYAYIADYDYWGQGTQVTVSS	high polyreactivity
QVQLVESGGGLVQAGGSLRLSCAASGRIFTAYAMGWYRQAPGKERELVAAISSGDSTYYADSVKGRFTISRDNAKNTVYLQMNSLKPEDTAVYYCATGVYPDFEYDSWGQGTQVTVSS	low polyreactivity
QVQLVESGGGLVQAGGSLRLSCAASGLTFNLYAMGWYRQAPGKEWELVAAITRNGGSTYYADSVKGPFTISRDNAKNSVYLELNSLKPEDTAVYYCATGWLGTPYGYRRFGYWGQGTQVTVSS	high polyreactivity
QVQLVESGGGLVQAGGSLRLSCAASGSTFDDYVMGWYRQAPGKERELVAGINSRGTSTDYADSVKGRFTISRDNAKNTVYLQLNSLKPEDTAVYYCAADDSHGYDYWGQGTQVTVSS	low polyreactivity
QVQLVESGGGLVQAGGSLRLSCAASGSIFGSYAMGWYRQAPGKARELVAAISQSGSSTYYADSVKGRFTISRDNAKNTVSLQMNSLKPEDTAVYYCAADWRHLRYRGGLQYDYWGQGTQVTVSS	high polyreactivity
QVQLVESGGCLVHAGGSLRLSCAASGFTFRWYAMGWYRQAPGKERELVASISRRGGSTYYADSVKGRFTISRDNEKNTVYLQMNSLKPEDSAVYYCAADYYDYWGQGTQVTVSS	high polyreactivity
QVQLVESGGGLVQAGGSLRLSCAASGSTLYRYAMGWYRQAPGKEREFVAAISVSGARTYYADSVKGRFTISRDNAKNTVYLQMNSLKPEDTAVYYCAARGGYQYDYWGQGTQVTVSS	high polyreactivity
QVQLQESGGRLVQAGGSLRLSCAASGNIFPTVSMGWYRQAPGKDREFVVTIDPGSNTYYADSAKGRFTISRDNAQNTVYLQMNSPKPEDTAVYYCAVVFADWATYGYWGQGTQVTVSS	high polyreactivity
QVQLVESGGGLVQAGGSLRLSCAASGSIFVLNAMGWYRPAPGKDRELVAAITNVGSTYYADSVKGRFTISRDNAKNTVYLQMNSRKPEDTAVYYCNADPAEVLVGYDYWGQGTQVTVSS	low polyreactivity
QVQHVESGGGLVQAGGSLRLSCAASGITFFYYAMGWYRQAPGKERELVAAISTSGGRTYYADSVKGRFTISRDNAKNTVYLQMNSLKPEDTAVYYCADQSGWLRYYYWGQGTQVTVSS	high polyreactivity
QVQLVESGGGLVQAGGSLRLSCAASGRTFVPYAMGWYRQAPGKERELVAAISSSGGSTYYADSVKGRFTISRDNAKNTVYLQMNSLKPDDTAVYYCAAKSRKGGEYWGQGTQVTVSS	high polyreactivity
QVQLVESGGGLVQAGGSLRLSCAASGFTITKYAMGWYRQAPGKERALVAAISRSAGSTYYADSVKGRFTISRDNAKHTVYLQMNSLKPEDTAVYYCNAYPKGRYAAAFPGMDYWGQGTQVTVSS	high polyreactivity
QVQLVESGGGLVQAGGSLRLSCAASGGTFYIYVMGWYRQAPGKERELVAAITSGDSTNYADSVKGRFTISRDNAKNTVYLQMNSLKPEDTAVYYCATGYWELRYDYWGQGTQVTVSS	low polyreactivity
QVQLVESGGGLVQAGGSLRLSCAASGSIFKWYTMGWYRQAPGKERELVAAITWGGGSTYYADSVKGRFTISRDNEKNTVYLQMNSLKPEDTAVYYCNREGWHYGPYGYWGQGTLVTVSS	low polyreactivity
QVQLVESGGGLVQAGGSLRLSCAASGLIFVGYAMGWYRQSPGKERELVAAITSGGSTKYADSVKGRVTISRDNAKNTDYLQMNSLKPEDTAVYYCADSGCRNWWSARNYYWGQGTQVTVSS	low polyreactivity
QVQLVESGGGLVQAGGSLRLSCAASGSIFGANTMGWYRQAPGKERELGAAISKRGGSTYYADSVKGRFTISRDNAKNTVYLQMNSLKPEDTAVYYCNATPRYLRQYVDPNWGYDYWGQGTQVTVSS	low polyreactivity
QVQLVESGGGLVQAGGSLRLSCAASGSTFPFYAMGWYRPAPGKERELVAAITSGGSTYADSVKGRFTISRDNAKNSVYLQMNSLKPEDTAVYYCAASWPRWWRFGYWGQGTQVTVSS	low polyreactivity
QVQLVESGGAIVQAGGSLRLICAASGSIFYIYAMGWYRQAPGKERELVASITFSGDITYYADSVKGRFTISRDNAKYTVYLQMNSLKPEDTAVYYCAADYHEQSYAVTYDYWGQGTKVTVSS	low polyreactivity
QVQLVESGGGLVQAGGSLRLSCAASGRIFSYNTVMGWYRQAPGKERELVAAITYSSASTYYADSVKGRFTISRDNAKNTVYLQMNSLKPEDTAVYYCAADAYTPGYRGDYWGQGTQVTVSS	low polyreactivity
